System: CC(C)C[C@H](NC(=O)[C@H](CCC(N)=O)NC(=O)[C@H](CCCCN)NC(=O)[C@H](CCCNC(=N)N)NC(=O)[C@@H]1CCCN1C(=O)[C@H](C)NC(=O)[C@H](CCCCN)NC(=O)CNC(=O)CNC(=O)[C@@H](NC(=O)[C@H](CO)NC(=O)[C@H](CCCCN)NC(=O)[C@H](CCCNC(=N)N)NC(=O)[C@H](C)NC(=O)[C@@H](NC(=O)[C@H](CCC(N)=O)NC(=O)[C@H](CCCCN(C)C)NC(=O)[C@@H](NC(=O)[C@H](CCCNC(=N)N)NC(=O)[C@H](C)N)[C@@H](C)O)[C@@H](C)O)[C@@H](C)O)C(=O)N[C@@H](C)C(=O)O
Assay: purified protein, by the assay type
Conditions: other: substrate, 20 nM LSD1
Experimental: The activity of hSMOX, hPAOX, and LSD1 enzymes was measured using the HyPerBlu chemiluminescent reagent for the direct detection of the hydrogen peroxide product. […] Hydrogen peroxide product formation was monitored 30 min after the addition of HyPerBlu on a PHERAstar microplate reader (BMG LABTECH, Cary, NC). All compounds were spotted into the assay plates using Echo acoustic dispensing technology (BeckmanCoulter, Indianapolis, IN). Unless otherwise stated, all reactions were carried out in 384-well assay format.
2 µL/well of 2x substrate was dispensed into the assay plate followed by 2 µL/well of 2x enzyme to initiate the reactions. […] The data were fit to the 4-parameter IC50 equation in GraphPad Prism.
Briefly, 2.5 µL/well of the twofold substrate solutions prepared in buffer was added to the assay wells followed by 2.5 µL/well of the 2x enzyme to initiate the reactions.
The initial velocity data were fit to the Michaelis-Menten equation in GraphPad Prism. Y=Vmax*X/(Km+X) where Vmax is the maximal velocity, X is the substrate concentration and Km is the Michaelis-Menten constant. The kcat value was determined by dividing Vmax value by the enzyme concentration.

For LSD1 (Homo sapiens), the Km was 3.8 ± 0.35 µM.
